Earlier results as cited in patent US9163073B2, “Chemically and thermodynamically stable insulin analogues and improved methods for their production” (AMIDEBIO LLC, priority 2013, dated 2015).

Key:
breast cancer = conditions: in vivo
[1] = molecular target: insulin receptor over the IGF-1R (Homo sapiens, UniProt P06213)
[2] = after one year in acidic formulations

selectivity for its own receptor over the IGF-1R [1] [fold]	Substance	induction of breast cancer (breast cancer)	AsnA21 deamidation [2]
–	AspB10 insulin: insulin analogue with AspB10 substitution, relatively high affinity for the IGF-1R	induce breast cancer	–
> 100	native insulin: native two-chain human insulin (A chain SEQ ID NO 2, B chain SEQ ID NO 3)	–	20-30%
